Test results: paper PMC7954794, “Protein context shapes the specificity of SH3 domain-mediated interactions in vivo” (Nature Communications, 2021)

B1: S. cerevisiae Abp1 (full length; SH3 domain 535-592 mutated) / Hua2 (parent)
chain 1: MALEPIDYTTHSREIDAEYLKIVRGSDPDTTWLIISPNAKKEYEPESTGSSFHDFLQLFDETKVQYGLARVSPPGSDVEKIIIIGWCPDSAPLKTRASFAANFAAVANNLFKGYHVQVTARDEDDLDENELLMKISNAAGARYSIQTSSKQQGKASTPPVKKSFTPSKSPAPVSKKEPVKTPSPAPAAKISSRVNDNNDDDDWNEPELKERDFDQAPLKPNQSSYKPIGKIDLQKVIAEEKAKEDPRLVQKPTAAGSKIDPSSDIANLKNESKLKRDSEFNSFLGTTKPPSMTESSLKNDDDKVIKGFRNEKSPAQLWAERKAKQNSGNAETKAEAPKPEVPEDEPEGEPDVKDLKSKFEGLAASEKEEEEMENKFAPPPKKSEPTIISPKPFSKPQEPVKAEEAEQPKTDYKKIGNPLPGMHIEADNEEEPEENDDDWDDDEDEAAQPPLPSRNVASGAPVQKEEPEQEEIAPSLPSRNSIPAPKQEEAPEQAPEEEIEEEAEEAAPQLPSRSSAAPPPPPRRATPEKKPKENPWATAEYDYDAAEDNELTFVENDKIINIEFVDDDWWLGELEKDGSKGLFPSNYVSLGN
chain 2: MQQTKFGKMYLDHDSVVEYSEDEIVEADRITLGYKKRLSMIENQMRHLLEDFSLDVQQIEPILADLQKYYDAFLQLLQKRNKSLQCKRSTHQPVPSPMNSQTSTNAKVNLSGKLMKFQLNSVQKFDEENILRILQNKIEFEHYFQIDKGKKQKVLLLAVYQCLNGPTRLHKVLNIEGIIHNNSIRTILGKQVSSSKWTVFLYDVKLVLLAHRQDVPNLETSKMIVRYGDLFPCALYFKDHTAY

Variants of: B1
Assay: DHFR protein-fragment complementation in yeast (Abp1-DHFR F[1,2] x partner-DHFR F[3]), deep mutational scanning, second methotrexate selection vs reference
Conditions: with Hua2; S. cerevisiae, DHFR-PCA selection in liquid with methotrexate at 30 C, two 72 h selections (the score uses the second); reference = the pre-selection culture; not an affinity; scale: DMS score: mean over two replicates of log2(f_test/f_ref + 0.5)/ln 2, minus the synonymous-codon median

Row | Variant | screen value
1 | chain 1 MALEPIDYTTHSREIDAEYLKIVRGSDPDTTWLIISPNAKKEYEPESTGSSFHDFLQLFDETKVQYGLARVSPPGSDVEKIIIIGWCPDSAPLKTRASFAANFAAVANNLFKGYHVQVTARDEDDLDENELLMKISNAAGARYSIQTSSKQQGKASTPPVKKSFTPSKSPAPVSKKEPVKTPSPAPAAKISSRVNDNNDDDDWNEPELKERDFDQAPLKPNQSSYKPIGKIDLQKVIAEEKAKEDPRLVQKPTAAGSKIDPSSDIANLKNESKLKRDSEFNSFLGTTKPPSMTESSLKNDDDKVIKGFRNEKSPAQLWAERKAKQNSGNAETKAEAPKPEVPEDEPEGEPDVKDLKSKFEGLAASEKEEEEMENKFAPPPKKSEPTIISPKPFSKPQEPVKAEEAEQPKTDYKKIGNPLPGMHIEADNEEEPEENDDDWDDDEDEAAQPPLPSRNVASGAPVQKEEPEQEEIAPSLPSRNSIPAPKQEEAPEQAPEEEIEEEAEEAAPQLPSRSSAAPPPPPRRATPEKKPKENPWDTAEYDYDAAEDNELTFVENDKIINIEFVDDDWWLGELEKDGSKGLFPSNYVSLGN [chain 1 A537D] | -2.14
2 | chain 1 MALEPIDYTTHSREIDAEYLKIVRGSDPDTTWLIISPNAKKEYEPESTGSSFHDFLQLFDETKVQYGLARVSPPGSDVEKIIIIGWCPDSAPLKTRASFAANFAAVANNLFKGYHVQVTARDEDDLDENELLMKISNAAGARYSIQTSSKQQGKASTPPVKKSFTPSKSPAPVSKKEPVKTPSPAPAAKISSRVNDNNDDDDWNEPELKERDFDQAPLKPNQSSYKPIGKIDLQKVIAEEKAKEDPRLVQKPTAAGSKIDPSSDIANLKNESKLKRDSEFNSFLGTTKPPSMTESSLKNDDDKVIKGFRNEKSPAQLWAERKAKQNSGNAETKAEAPKPEVPEDEPEGEPDVKDLKSKFEGLAASEKEEEEMENKFAPPPKKSEPTIISPKPFSKPQEPVKAEEAEQPKTDYKKIGNPLPGMHIEADNEEEPEENDDDWDDDEDEAAQPPLPSRNVASGAPVQKEEPEQEEIAPSLPSRNSIPAPKQEEAPEQAPEEEIEEEAEEAAPQLPSRSSAAPPPPPRRATPEKKPKENPWVTAEYDYDAAEDNELTFVENDKIINIEFVDDDWWLGELEKDGSKGLFPSNYVSLGN [chain 1 A537V] | -2.01
3 | chain 1 MALEPIDYTTHSREIDAEYLKIVRGSDPDTTWLIISPNAKKEYEPESTGSSFHDFLQLFDETKVQYGLARVSPPGSDVEKIIIIGWCPDSAPLKTRASFAANFAAVANNLFKGYHVQVTARDEDDLDENELLMKISNAAGARYSIQTSSKQQGKASTPPVKKSFTPSKSPAPVSKKEPVKTPSPAPAAKISSRVNDNNDDDDWNEPELKERDFDQAPLKPNQSSYKPIGKIDLQKVIAEEKAKEDPRLVQKPTAAGSKIDPSSDIANLKNESKLKRDSEFNSFLGTTKPPSMTESSLKNDDDKVIKGFRNEKSPAQLWAERKAKQNSGNAETKAEAPKPEVPEDEPEGEPDVKDLKSKFEGLAASEKEEEEMENKFAPPPKKSEPTIISPKPFSKPQEPVKAEEAEQPKTDYKKIGNPLPGMHIEADNEEEPEENDDDWDDDEDEAAQPPLPSRNVASGAPVQKEEPEQEEIAPSLPSRNSIPAPKQEEAPEQAPEEEIEEEAEEAAPQLPSRSSAAPPPPPRRATPEKKPKENPWPTAEYDYDAAEDNELTFVENDKIINIEFVDDDWWLGELEKDGSKGLFPSNYVSLGN [chain 1 A537P] | -2.58
4 | chain 1 MALEPIDYTTHSREIDAEYLKIVRGSDPDTTWLIISPNAKKEYEPESTGSSFHDFLQLFDETKVQYGLARVSPPGSDVEKIIIIGWCPDSAPLKTRASFAANFAAVANNLFKGYHVQVTARDEDDLDENELLMKISNAAGARYSIQTSSKQQGKASTPPVKKSFTPSKSPAPVSKKEPVKTPSPAPAAKISSRVNDNNDDDDWNEPELKERDFDQAPLKPNQSSYKPIGKIDLQKVIAEEKAKEDPRLVQKPTAAGSKIDPSSDIANLKNESKLKRDSEFNSFLGTTKPPSMTESSLKNDDDKVIKGFRNEKSPAQLWAERKAKQNSGNAETKAEAPKPEVPEDEPEGEPDVKDLKSKFEGLAASEKEEEEMENKFAPPPKKSEPTIISPKPFSKPQEPVKAEEAEQPKTDYKKIGNPLPGMHIEADNEEEPEENDDDWDDDEDEAAQPPLPSRNVASGAPVQKEEPEQEEIAPSLPSRNSIPAPKQEEAPEQAPEEEIEEEAEEAAPQLPSRSSAAPPPPPRRATPEKKPKENPWSTAEYDYDAAEDNELTFVENDKIINIEFVDDDWWLGELEKDGSKGLFPSNYVSLGN [chain 1 A537S] | -2.6
5 | chain 1 MALEPIDYTTHSREIDAEYLKIVRGSDPDTTWLIISPNAKKEYEPESTGSSFHDFLQLFDETKVQYGLARVSPPGSDVEKIIIIGWCPDSAPLKTRASFAANFAAVANNLFKGYHVQVTARDEDDLDENELLMKISNAAGARYSIQTSSKQQGKASTPPVKKSFTPSKSPAPVSKKEPVKTPSPAPAAKISSRVNDNNDDDDWNEPELKERDFDQAPLKPNQSSYKPIGKIDLQKVIAEEKAKEDPRLVQKPTAAGSKIDPSSDIANLKNESKLKRDSEFNSFLGTTKPPSMTESSLKNDDDKVIKGFRNEKSPAQLWAERKAKQNSGNAETKAEAPKPEVPEDEPEGEPDVKDLKSKFEGLAASEKEEEEMENKFAPPPKKSEPTIISPKPFSKPQEPVKAEEAEQPKTDYKKIGNPLPGMHIEADNEEEPEENDDDWDDDEDEAAQPPLPSRNVASGAPVQKEEPEQEEIAPSLPSRNSIPAPKQEEAPEQAPEEEIEEEAEEAAPQLPSRSSAAPPPPPRRATPEKKPKENPWFTAEYDYDAAEDNELTFVENDKIINIEFVDDDWWLGELEKDGSKGLFPSNYVSLGN [chain 1 A537F] | -2.93
6 | chain 1 MALEPIDYTTHSREIDAEYLKIVRGSDPDTTWLIISPNAKKEYEPESTGSSFHDFLQLFDETKVQYGLARVSPPGSDVEKIIIIGWCPDSAPLKTRASFAANFAAVANNLFKGYHVQVTARDEDDLDENELLMKISNAAGARYSIQTSSKQQGKASTPPVKKSFTPSKSPAPVSKKEPVKTPSPAPAAKISSRVNDNNDDDDWNEPELKERDFDQAPLKPNQSSYKPIGKIDLQKVIAEEKAKEDPRLVQKPTAAGSKIDPSSDIANLKNESKLKRDSEFNSFLGTTKPPSMTESSLKNDDDKVIKGFRNEKSPAQLWAERKAKQNSGNAETKAEAPKPEVPEDEPEGEPDVKDLKSKFEGLAASEKEEEEMENKFAPPPKKSEPTIISPKPFSKPQEPVKAEEAEQPKTDYKKIGNPLPGMHIEADNEEEPEENDDDWDDDEDEAAQPPLPSRNVASGAPVQKEEPEQEEIAPSLPSRNSIPAPKQEEAPEQAPEEEIEEEAEEAAPQLPSRSSAAPPPPPRRATPEKKPKENPWATSEYDYDAAEDNELTFVENDKIINIEFVDDDWWLGELEKDGSKGLFPSNYVSLGN [chain 1 A539S] | -1.72

Second part, the variant after the results:

Row | screen value | Variant
7 | -1.87 | chain 1 MALEPIDYTTHSREIDAEYLKIVRGSDPDTTWLIISPNAKKEYEPESTGSSFHDFLQLFDETKVQYGLARVSPPGSDVEKIIIIGWCPDSAPLKTRASFAANFAAVANNLFKGYHVQVTARDEDDLDENELLMKISNAAGARYSIQTSSKQQGKASTPPVKKSFTPSKSPAPVSKKEPVKTPSPAPAAKISSRVNDNNDDDDWNEPELKERDFDQAPLKPNQSSYKPIGKIDLQKVIAEEKAKEDPRLVQKPTAAGSKIDPSSDIANLKNESKLKRDSEFNSFLGTTKPPSMTESSLKNDDDKVIKGFRNEKSPAQLWAERKAKQNSGNAETKAEAPKPEVPEDEPEGEPDVKDLKSKFEGLAASEKEEEEMENKFAPPPKKSEPTIISPKPFSKPQEPVKAEEAEQPKTDYKKIGNPLPGMHIEADNEEEPEENDDDWDDDEDEAAQPPLPSRNVASGAPVQKEEPEQEEIAPSLPSRNSIPAPKQEEAPEQAPEEEIEEEAEEAAPQLPSRSSAAPPPPPRRATPEKKPKENPWTTAEYDYDAAEDNELTFVENDKIINIEFVDDDWWLGELEKDGSKGLFPSNYVSLGN [chain 1 A537T]
8 | -2.3 | chain 1 MALEPIDYTTHSREIDAEYLKIVRGSDPDTTWLIISPNAKKEYEPESTGSSFHDFLQLFDETKVQYGLARVSPPGSDVEKIIIIGWCPDSAPLKTRASFAANFAAVANNLFKGYHVQVTARDEDDLDENELLMKISNAAGARYSIQTSSKQQGKASTPPVKKSFTPSKSPAPVSKKEPVKTPSPAPAAKISSRVNDNNDDDDWNEPELKERDFDQAPLKPNQSSYKPIGKIDLQKVIAEEKAKEDPRLVQKPTAAGSKIDPSSDIANLKNESKLKRDSEFNSFLGTTKPPSMTESSLKNDDDKVIKGFRNEKSPAQLWAERKAKQNSGNAETKAEAPKPEVPEDEPEGEPDVKDLKSKFEGLAASEKEEEEMENKFAPPPKKSEPTIISPKPFSKPQEPVKAEEAEQPKTDYKKIGNPLPGMHIEADNEEEPEENDDDWDDDEDEAAQPPLPSRNVASGAPVQKEEPEQEEIAPSLPSRNSIPAPKQEEAPEQAPEEEIEEEAEEAAPQLPSRSSAAPPPPPRRATPEKKPKENPWATEEYDYDAAEDNELTFVENDKIINIEFVDDDWWLGELEKDGSKGLFPSNYVSLGN [chain 1 A539E]
9 | -2.72 | chain 1 MALEPIDYTTHSREIDAEYLKIVRGSDPDTTWLIISPNAKKEYEPESTGSSFHDFLQLFDETKVQYGLARVSPPGSDVEKIIIIGWCPDSAPLKTRASFAANFAAVANNLFKGYHVQVTARDEDDLDENELLMKISNAAGARYSIQTSSKQQGKASTPPVKKSFTPSKSPAPVSKKEPVKTPSPAPAAKISSRVNDNNDDDDWNEPELKERDFDQAPLKPNQSSYKPIGKIDLQKVIAEEKAKEDPRLVQKPTAAGSKIDPSSDIANLKNESKLKRDSEFNSFLGTTKPPSMTESSLKNDDDKVIKGFRNEKSPAQLWAERKAKQNSGNAETKAEAPKPEVPEDEPEGEPDVKDLKSKFEGLAASEKEEEEMENKFAPPPKKSEPTIISPKPFSKPQEPVKAEEAEQPKTDYKKIGNPLPGMHIEADNEEEPEENDDDWDDDEDEAAQPPLPSRNVASGAPVQKEEPEQEEIAPSLPSRNSIPAPKQEEAPEQAPEEEIEEEAEEAAPQLPSRSSAAPPPPPRRATPEKKPKENPWATPEYDYDAAEDNELTFVENDKIINIEFVDDDWWLGELEKDGSKGLFPSNYVSLGN [chain 1 A539P]
10 | -2.8 | chain 1 MALEPIDYTTHSREIDAEYLKIVRGSDPDTTWLIISPNAKKEYEPESTGSSFHDFLQLFDETKVQYGLARVSPPGSDVEKIIIIGWCPDSAPLKTRASFAANFAAVANNLFKGYHVQVTARDEDDLDENELLMKISNAAGARYSIQTSSKQQGKASTPPVKKSFTPSKSPAPVSKKEPVKTPSPAPAAKISSRVNDNNDDDDWNEPELKERDFDQAPLKPNQSSYKPIGKIDLQKVIAEEKAKEDPRLVQKPTAAGSKIDPSSDIANLKNESKLKRDSEFNSFLGTTKPPSMTESSLKNDDDKVIKGFRNEKSPAQLWAERKAKQNSGNAETKAEAPKPEVPEDEPEGEPDVKDLKSKFEGLAASEKEEEEMENKFAPPPKKSEPTIISPKPFSKPQEPVKAEEAEQPKTDYKKIGNPLPGMHIEADNEEEPEENDDDWDDDEDEAAQPPLPSRNVASGAPVQKEEPEQEEIAPSLPSRNSIPAPKQEEAPEQAPEEEIEEEAEEAAPQLPSRSSAAPPPPPRRATPEKKPKENPWATGEYDYDAAEDNELTFVENDKIINIEFVDDDWWLGELEKDGSKGLFPSNYVSLGN [chain 1 A539G]
